# Measurements taken from patent publication US20230235013A1 (MABSOLVE, published 2023).
# Biological target: T1, Histidine-tagged recombinant human FcγRI (CD64) (human, UniProt P12314 16-288)
# T1 construct: bought; also called Sino Biological Cat. No. 12056-H08H
# Assay: SPR, culture supernatant, captured His-FcγRI;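 also: biacore T200 SPR at 25 °C, anti-His capture, supernatants of HEK293 cells expressing IgG1 Fc variants injected 1 min, reference-subtracted response read 55 s after injection start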
row,Mean binding response [RU],Binder
1,33.7,"anti-CD20 human IgG1 L234E/L235Q/G236R (antibody, also called 1-42; copies: 2 + 2) heavy: QVQLQQPGAELVKPGASVKMSCKASGYTFTSYNMHWVKQTPGRGLEWIGAIYPGNGDTSYNQKFKGKATLTADKSSSTAYMQLSSLTSEDSAVYYCARSTYYGGDWYFNVWGAGTTVTVSSASTKGPSVFPLAPSSKSTSGGTAALGCLVKDYFPEPVTVSWNSGALTSGVHTFPAVLQSSGLYSLSSVVTVPSSSLGTQTYICNVNHKPSNTKVDKKVEPKSCDKTHTCPPCPAPEEQRGPSVFLFPPKPKDTLMISRTPEVTCVVVDVSHEDPEVKFNWYVDGVEVHNAKTKPREEQYNSTYRVVSVLTVLHQDWLNGKEYKCKVSNKALPAPIEKTISKAKGQPREPQVYTLPPSRDELTKNQVSLTCLVKGFYPSDIAVEWESNGQPENNYKTTPPVLDSDGSFFLYSKLTVDKSRWQQGNVFSCSVMHEALHNHYTQKSLSLSPGK light: QIVLSQSPAILSASPGEKVTMTCRASSSVSYIHWFQQKPGSSPKPWIYATSNLASGVPVRFSGSGSGTSYSLTISRVEAEDAATYYCQQWTSNPPTFGGGTKLEIKRTVAAPSVFIFPPSDEQLKSGTASVVCLLNNFYPREAKVQWKVDNALQSGNSQESVTEQDSKDSTYSLSSTLTLSKADYEKHKVYACEVTHQGLSSPVTKSFNRGEC"
2,18.4,"anti-CD20 human IgG1 L234E/L235V/G236R (antibody, also called 1-46; 2-16; copies: 2 + 2) heavy: QVQLQQPGAELVKPGASVKMSCKASGYTFTSYNMHWVKQTPGRGLEWIGAIYPGNGDTSYNQKFKGKATLTADKSSSTAYMQLSSLTSEDSAVYYCARSTYYGGDWYFNVWGAGTTVTVSSASTKGPSVFPLAPSSKSTSGGTAALGCLVKDYFPEPVTVSWNSGALTSGVHTFPAVLQSSGLYSLSSVVTVPSSSLGTQTYICNVNHKPSNTKVDKKVEPKSCDKTHTCPPCPAPEEVRGPSVFLFPPKPKDTLMISRTPEVTCVVVDVSHEDPEVKFNWYVDGVEVHNAKTKPREEQYNSTYRVVSVLTVLHQDWLNGKEYKCKVSNKALPAPIEKTISKAKGQPREPQVYTLPPSRDELTKNQVSLTCLVKGFYPSDIAVEWESNGQPENNYKTTPPVLDSDGSFFLYSKLTVDKSRWQQGNVFSCSVMHEALHNHYTQKSLSLSPGK light: QIVLSQSPAILSASPGEKVTMTCRASSSVSYIHWFQQKPGSSPKPWIYATSNLASGVPVRFSGSGSGTSYSLTISRVEAEDAATYYCQQWTSNPPTFGGGTKLEIKRTVAAPSVFIFPPSDEQLKSGTASVVCLLNNFYPREAKVQWKVDNALQSGNSQESVTEQDSKDSTYSLSSTLTLSKADYEKHKVYACEVTHQGLSSPVTKSFNRGEC"
3,23,"anti-CD20 human IgG1 L234G/L235A/G236R (antibody, also called 1-47; copies: 2 + 2) heavy: not shown light: QIVLSQSPAILSASPGEKVTMTCRASSSVSYIHWFQQKPGSSPKPWIYATSNLASGVPVRFSGSGSGTSYSLTISRVEAEDAATYYCQQWTSNPPTFGGGTKLEIKRTVAAPSVFIFPPSDEQLKSGTASVVCLLNNFYPREAKVQWKVDNALQSGNSQESVTEQDSKDSTYSLSSTLTLSKADYEKHKVYACEVTHQGLSSPVTKSFNRGEC"
4,26.7,"anti-CD20 human IgG1 L234E/L235R/G236R (antibody, also called 1-43; copies: 2 + 2) heavy: QVQLQQPGAELVKPGASVKMSCKASGYTFTSYNMHWVKQTPGRGLEWIGAIYPGNGDTSYNQKFKGKATLTADKSSSTAYMQLSSLTSEDSAVYYCARSTYYGGDWYFNVWGAGTTVTVSSASTKGPSVFPLAPSSKSTSGGTAALGCLVKDYFPEPVTVSWNSGALTSGVHTFPAVLQSSGLYSLSSVVTVPSSSLGTQTYICNVNHKPSNTKVDKKVEPKSCDKTHTCPPCPAPEERRGPSVFLFPPKPKDTLMISRTPEVTCVVVDVSHEDPEVKFNWYVDGVEVHNAKTKPREEQYNSTYRVVSVLTVLHQDWLNGKEYKCKVSNKALPAPIEKTISKAKGQPREPQVYTLPPSRDELTKNQVSLTCLVKGFYPSDIAVEWESNGQPENNYKTTPPVLDSDGSFFLYSKLTVDKSRWQQGNVFSCSVMHEALHNHYTQKSLSLSPGK light: QIVLSQSPAILSASPGEKVTMTCRASSSVSYIHWFQQKPGSSPKPWIYATSNLASGVPVRFSGSGSGTSYSLTISRVEAEDAATYYCQQWTSNPPTFGGGTKLEIKRTVAAPSVFIFPPSDEQLKSGTASVVCLLNNFYPREAKVQWKVDNALQSGNSQESVTEQDSKDSTYSLSSTLTLSKADYEKHKVYACEVTHQGLSSPVTKSFNRGEC"
5,28.5,"anti-CD20 human IgG1 L234G/G236R (antibody, also called 1-54; 2-85; copies: 2 + 2) heavy: not shown light: QIVLSQSPAILSASPGEKVTMTCRASSSVSYIHWFQQKPGSSPKPWIYATSNLASGVPVRFSGSGSGTSYSLTISRVEAEDAATYYCQQWTSNPPTFGGGTKLEIKRTVAAPSVFIFPPSDEQLKSGTASVVCLLNNFYPREAKVQWKVDNALQSGNSQESVTEQDSKDSTYSLSSTLTLSKADYEKHKVYACEVTHQGLSSPVTKSFNRGEC"
6,29.6,"anti-CD20 human IgG1 L234E/L235T/G236R (antibody, also called 1-45; copies: 2 + 2) heavy: QVQLQQPGAELVKPGASVKMSCKASGYTFTSYNMHWVKQTPGRGLEWIGAIYPGNGDTSYNQKFKGKATLTADKSSSTAYMQLSSLTSEDSAVYYCARSTYYGGDWYFNVWGAGTTVTVSSASTKGPSVFPLAPSSKSTSGGTAALGCLVKDYFPEPVTVSWNSGALTSGVHTFPAVLQSSGLYSLSSVVTVPSSSLGTQTYICNVNHKPSNTKVDKKVEPKSCDKTHTCPPCPAPEETRGPSVFLFPPKPKDTLMISRTPEVTCVVVDVSHEDPEVKFNWYVDGVEVHNAKTKPREEQYNSTYRVVSVLTVLHQDWLNGKEYKCKVSNKALPAPIEKTISKAKGQPREPQVYTLPPSRDELTKNQVSLTCLVKGFYPSDIAVEWESNGQPENNYKTTPPVLDSDGSFFLYSKLTVDKSRWQQGNVFSCSVMHEALHNHYTQKSLSLSPGK light: QIVLSQSPAILSASPGEKVTMTCRASSSVSYIHWFQQKPGSSPKPWIYATSNLASGVPVRFSGSGSGTSYSLTISRVEAEDAATYYCQQWTSNPPTFGGGTKLEIKRTVAAPSVFIFPPSDEQLKSGTASVVCLLNNFYPREAKVQWKVDNALQSGNSQESVTEQDSKDSTYSLSSTLTLSKADYEKHKVYACEVTHQGLSSPVTKSFNRGEC"
7,39.2,"anti-CD20 human IgG1 L234E/L235S/G236R (antibody, also called 1-44; copies: 2 + 2) heavy: QVQLQQPGAELVKPGASVKMSCKASGYTFTSYNMHWVKQTPGRGLEWIGAIYPGNGDTSYNQKFKGKATLTADKSSSTAYMQLSSLTSEDSAVYYCARSTYYGGDWYFNVWGAGTTVTVSSASTKGPSVFPLAPSSKSTSGGTAALGCLVKDYFPEPVTVSWNSGALTSGVHTFPAVLQSSGLYSLSSVVTVPSSSLGTQTYICNVNHKPSNTKVDKKVEPKSCDKTHTCPPCPAPEESRGPSVFLFPPKPKDTLMISRTPEVTCVVVDVSHEDPEVKFNWYVDGVEVHNAKTKPREEQYNSTYRVVSVLTVLHQDWLNGKEYKCKVSNKALPAPIEKTISKAKGQPREPQVYTLPPSRDELTKNQVSLTCLVKGFYPSDIAVEWESNGQPENNYKTTPPVLDSDGSFFLYSKLTVDKSRWQQGNVFSCSVMHEALHNHYTQKSLSLSPGK light: QIVLSQSPAILSASPGEKVTMTCRASSSVSYIHWFQQKPGSSPKPWIYATSNLASGVPVRFSGSGSGTSYSLTISRVEAEDAATYYCQQWTSNPPTFGGGTKLEIKRTVAAPSVFIFPPSDEQLKSGTASVVCLLNNFYPREAKVQWKVDNALQSGNSQESVTEQDSKDSTYSLSSTLTLSKADYEKHKVYACEVTHQGLSSPVTKSFNRGEC"
